Measurements as given in the supplement of paper PMC10065799, “High-throughput profiling of sequence recognition by tyrosine kinases and SH2 domains using bacterial peptide display” (eLife, 2023).
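Also: 11-residue human phosphosite peptides and single-mutation variants displayed on the E. coli surface, counted by deep sequencing, each peptide's frequency after selection divided by its frequency in the unselected input library; frequency after pTyr selection over input frequency; kinase dosed for 20-30% of maximal phosphorylation in three min.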

What follows are sequences tested on c-Src (assay: phosphorylation enrichment, bacterial display (enrichment ratio); higher = better substrate or ligand; peptides without Tyr show the background).
FRNSLYAPDYS [FAM92A_Y226] gave a phosphorylation enrichment of 0.779. In the case of IEPGIYIPEDD [XPNPEP3_Y455], the phosphorylation enrichment is reported as 0.702. Sequence QTPVLYAMLYH [MPZ_Y220_D224Y] has a phosphorylation enrichment of 3.4. With RGDCMYASLLG [AR_Y269_P271S] the phosphorylation enrichment was 6. Work on EWLRRYLENGK [HLA-A_Y195] yielded a phosphorylation enrichment of 0.346. With RYLKDYGEFEV [GINS1_Y156_C152Y] the phosphorylation enrichment was 1.69. In the case of QKPLGYFRVNL [GALE_Y104_D103G_YF], the phosphorylation enrichment is reported as 0.409. TDEYEYDELIV [TGM1_Y136] showed a phosphorylation enrichment of 0.454. Sequence PVQAAYPKVVA [HBB_Y131_Q132P] has a phosphorylation enrichment of 1. Sequence GRSTYYWPRPR [GAGE12J_Y10] has a phosphorylation enrichment of 0.665. IMAFFYMCDSA [CASD1_Y382_R386S_YF] showed a phosphorylation enrichment of 0.596. IPGGIYDADLN [CST4_Y35] gave a phosphorylation enrichment of 1.62. MARDISRASFF [ALK_Y1278_Y1278S_YF] gave a phosphorylation enrichment of 0.396. Sequence GTSLIYWTLFT [G6PC3_Y214] has a phosphorylation enrichment of 6.99. With TSFSGYRFHRH [NKAPL_Y94_YF] the phosphorylation enrichment was 0.579. Work on MHYSNYVSKGS [PDGFRA_Y849_D846Y] yielded a phosphorylation enrichment of 0.495. With NAPNSYGRRLI [CDKN2A_Y44_P48L] the phosphorylation enrichment was 0.449. Sequence NHFKIHNLCAE [PTEN_Y68_Y68H_YF] has a phosphorylation enrichment of 0.432. Sequence FPPISYLNAIS [MVD_Y276] has a phosphorylation enrichment of 0.466. YRDALYKFIVD [PHEX_Y250_M253I] gave a phosphorylation enrichment of 0.638. With KIVFVYVKKRS [DNAI2_Y7_E2K_YF] the phosphorylation enrichment was 0.428. For DTLMEYLENPK [CYCS_Y68], the phosphorylation enrichment was 0.562. Work on LVTRSYLLGNS [LMNA_Y646] yielded a phosphorylation enrichment of 0.854. Sequence MIRSAYALGGL [CPS1_Y590] has a phosphorylation enrichment of 0.384. With GLRFGYGGLGG [KRTAP20-2_Y15_V17G_YF] the phosphorylation enrichment was 0.419. In the case of EKSREYDRLFE [PIK3R1_Y463_YF], the phosphorylation enrichment is reported as 0.5. In the case of YSKTQYNQVPR [CXADR_Y318_S323R], the phosphorylation enrichment is reported as 0.462. LPIQTYSALNF [DES_Y423] was tested, and the phosphorylation enrichment was 8. Sequence NGSKAYAYVHF [PABPC5_Y147_G146A] has a phosphorylation enrichment of 0.401. INQGPYENRSV [ATP6V1B1_Y462] showed a phosphorylation enrichment of 0.435. Work on GSRGKYSSGFC [ATM_Y332_R337C] yielded a phosphorylation enrichment of 0.472. In the case of KGEDFYSVTCH [FHL1_Y149_C150S], the phosphorylation enrichment is reported as 3.96. For ILQSMYGCDVG [HLA-B_Y123_T118I], the phosphorylation enrichment was 0.569.

Each sequence was assayed against FGFR1 (UniProt P11362) in the same assay as above.
FGFR1, sequence (P11362 whole entry, looked up): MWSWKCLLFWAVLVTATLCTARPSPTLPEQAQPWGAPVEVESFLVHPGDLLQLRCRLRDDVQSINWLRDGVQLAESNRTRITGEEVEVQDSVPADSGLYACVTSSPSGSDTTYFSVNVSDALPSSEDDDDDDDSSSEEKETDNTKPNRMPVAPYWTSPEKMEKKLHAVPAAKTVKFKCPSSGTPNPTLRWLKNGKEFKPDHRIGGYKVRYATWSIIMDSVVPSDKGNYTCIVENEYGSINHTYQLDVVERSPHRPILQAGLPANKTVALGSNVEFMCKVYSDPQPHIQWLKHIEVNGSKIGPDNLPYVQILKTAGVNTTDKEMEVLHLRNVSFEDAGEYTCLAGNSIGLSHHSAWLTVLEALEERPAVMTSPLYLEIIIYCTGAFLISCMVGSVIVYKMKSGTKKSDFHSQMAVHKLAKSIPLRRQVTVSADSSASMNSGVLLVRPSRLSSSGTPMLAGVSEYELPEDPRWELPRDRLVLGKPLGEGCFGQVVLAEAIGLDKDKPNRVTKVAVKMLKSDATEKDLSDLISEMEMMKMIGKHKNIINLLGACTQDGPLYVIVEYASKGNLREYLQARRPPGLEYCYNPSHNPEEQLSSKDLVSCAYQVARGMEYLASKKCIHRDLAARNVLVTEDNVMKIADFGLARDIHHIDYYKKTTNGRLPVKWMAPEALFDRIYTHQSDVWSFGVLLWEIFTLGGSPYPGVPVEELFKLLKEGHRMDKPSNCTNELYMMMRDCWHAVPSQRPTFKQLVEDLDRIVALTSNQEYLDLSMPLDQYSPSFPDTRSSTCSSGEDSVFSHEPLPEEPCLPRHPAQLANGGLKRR
FRNSLYAPDYS [FAM92A_Y226] was tested, and the phosphorylation enrichment was 0.66. Sequence IEPGIYIPEDD [XPNPEP3_Y455] has a phosphorylation enrichment of 0.521. For QTPVLYAMLYH [MPZ_Y220_D224Y], the phosphorylation enrichment was 5.59. RGDCMYASLLG [AR_Y269_P271S] was tested, and the phosphorylation enrichment was 1.45. Work on EWLRRYLENGK [HLA-A_Y195] yielded a phosphorylation enrichment of 0.42. RYLKDYGEFEV [GINS1_Y156_C152Y] was tested, and the phosphorylation enrichment was 1.16. Work on QKPLGYFRVNL [GALE_Y104_D103G_YF] yielded a phosphorylation enrichment of 0.839. Work on TDEYEYDELIV [TGM1_Y136] yielded a phosphorylation enrichment of 0.664. For PVQAAYPKVVA [HBB_Y131_Q132P], the phosphorylation enrichment was 0.322. GRSTYYWPRPR [GAGE12J_Y10] showed a phosphorylation enrichment of 0.537. Sequence IMAFFYMCDSA [CASD1_Y382_R386S_YF] has a phosphorylation enrichment of 0.791. Work on IPGGIYDADLN [CST4_Y35] yielded a phosphorylation enrichment of 0.746. MARDISRASFF [ALK_Y1278_Y1278S_YF] showed a phosphorylation enrichment of 0.41. GTSLIYWTLFT [G6PC3_Y214] was tested, and the phosphorylation enrichment was 5.01. Work on TSFSGYRFHRH [NKAPL_Y94_YF] yielded a phosphorylation enrichment of 0.44. MHYSNYVSKGS [PDGFRA_Y849_D846Y] gave a phosphorylation enrichment of 0.421. With NAPNSYGRRLI [CDKN2A_Y44_P48L] the phosphorylation enrichment was 0.446. Work on NHFKIHNLCAE [PTEN_Y68_Y68H_YF] yielded a phosphorylation enrichment of 0.428. In the case of FPPISYLNAIS [MVD_Y276], the phosphorylation enrichment is reported as 0.473. In the case of YRDALYKFIVD [PHEX_Y250_M253I], the phosphorylation enrichment is reported as 0.952. For KIVFVYVKKRS [DNAI2_Y7_E2K_YF], the phosphorylation enrichment was 0.466. DTLMEYLENPK [CYCS_Y68] was tested, and the phosphorylation enrichment was 0.511. Work on LVTRSYLLGNS [LMNA_Y646] yielded a phosphorylation enrichment of 0.841. In the case of MIRSAYALGGL [CPS1_Y590], the phosphorylation enrichment is reported as 0.392. Sequence GLRFGYGGLGG [KRTAP20-2_Y15_V17G_YF] has a phosphorylation enrichment of 0.509. EKSREYDRLFE [PIK3R1_Y463_YF] gave a phosphorylation enrichment of 0.434. For YSKTQYNQVPR [CXADR_Y318_S323R], the phosphorylation enrichment was 0.421. Work on LPIQTYSALNF [DES_Y423] yielded a phosphorylation enrichment of 2.1. With NGSKAYAYVHF [PABPC5_Y147_G146A] the phosphorylation enrichment was 0.568. INQGPYENRSV [ATP6V1B1_Y462] showed a phosphorylation enrichment of 0.421. For GSRGKYSSGFC [ATM_Y332_R337C], the phosphorylation enrichment was 0.446. In the case of KGEDFYSVTCH [FHL1_Y149_C150S], the phosphorylation enrichment is reported as 0.849. With ILQSMYGCDVG [HLA-B_Y123_T118I] the phosphorylation enrichment was 0.403.

Each sequence was assayed against Hck (UniProt P08631) in the same assay as above.
Hck, sequence (P08631 whole entry, looked up): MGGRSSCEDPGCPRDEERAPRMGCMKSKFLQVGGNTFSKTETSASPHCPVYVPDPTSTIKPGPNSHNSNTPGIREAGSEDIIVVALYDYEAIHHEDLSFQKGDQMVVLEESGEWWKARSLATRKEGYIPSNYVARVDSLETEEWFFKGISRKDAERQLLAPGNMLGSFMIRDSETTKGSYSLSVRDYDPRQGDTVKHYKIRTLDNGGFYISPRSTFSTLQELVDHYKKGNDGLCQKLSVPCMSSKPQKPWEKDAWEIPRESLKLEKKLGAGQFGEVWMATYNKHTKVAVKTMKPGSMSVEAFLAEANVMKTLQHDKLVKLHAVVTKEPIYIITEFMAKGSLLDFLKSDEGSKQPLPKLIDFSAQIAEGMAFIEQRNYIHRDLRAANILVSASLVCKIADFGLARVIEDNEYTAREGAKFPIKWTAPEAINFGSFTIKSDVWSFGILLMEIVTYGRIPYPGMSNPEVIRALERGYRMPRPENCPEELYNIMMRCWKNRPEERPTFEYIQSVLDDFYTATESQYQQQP
For FRNSLYAPDYS [FAM92A_Y226], the phosphorylation enrichment was 0.88. For IEPGIYIPEDD [XPNPEP3_Y455], the phosphorylation enrichment was 0.592. QTPVLYAMLYH [MPZ_Y220_D224Y] was tested, and the phosphorylation enrichment was 5.44. Sequence RGDCMYASLLG [AR_Y269_P271S] has a phosphorylation enrichment of 7.26. EWLRRYLENGK [HLA-A_Y195] was tested, and the phosphorylation enrichment was 0.387. Work on RYLKDYGEFEV [GINS1_Y156_C152Y] yielded a phosphorylation enrichment of 1. Sequence QKPLGYFRVNL [GALE_Y104_D103G_YF] has a phosphorylation enrichment of 0.648. Work on TDEYEYDELIV [TGM1_Y136] yielded a phosphorylation enrichment of 0.775. PVQAAYPKVVA [HBB_Y131_Q132P] was tested, and the phosphorylation enrichment was 0.335. GRSTYYWPRPR [GAGE12J_Y10] was tested, and the phosphorylation enrichment was 0.615. Work on IMAFFYMCDSA [CASD1_Y382_R386S_YF] yielded a phosphorylation enrichment of 0.658. IPGGIYDADLN [CST4_Y35] showed a phosphorylation enrichment of 1.65. MARDISRASFF [ALK_Y1278_Y1278S_YF] was tested, and the phosphorylation enrichment was 0.384. GTSLIYWTLFT [G6PC3_Y214] showed a phosphorylation enrichment of 6.02. Work on TSFSGYRFHRH [NKAPL_Y94_YF] yielded a phosphorylation enrichment of 0.515. In the case of MHYSNYVSKGS [PDGFRA_Y849_D846Y], the phosphorylation enrichment is reported as 0.478. For NAPNSYGRRLI [CDKN2A_Y44_P48L], the phosphorylation enrichment was 0.504. For NHFKIHNLCAE [PTEN_Y68_Y68H_YF], the phosphorylation enrichment was 0.394. FPPISYLNAIS [MVD_Y276] gave a phosphorylation enrichment of 0.465. YRDALYKFIVD [PHEX_Y250_M253I] gave a phosphorylation enrichment of 0.706. KIVFVYVKKRS [DNAI2_Y7_E2K_YF] was tested, and the phosphorylation enrichment was 0.449. DTLMEYLENPK [CYCS_Y68] gave a phosphorylation enrichment of 0.69. With LVTRSYLLGNS [LMNA_Y646] the phosphorylation enrichment was 0.708. Sequence MIRSAYALGGL [CPS1_Y590] has a phosphorylation enrichment of 0.386. GLRFGYGGLGG [KRTAP20-2_Y15_V17G_YF] showed a phosphorylation enrichment of 0.376. Work on EKSREYDRLFE [PIK3R1_Y463_YF] yielded a phosphorylation enrichment of 0.522. With YSKTQYNQVPR [CXADR_Y318_S323R] the phosphorylation enrichment was 0.487. LPIQTYSALNF [DES_Y423] showed a phosphorylation enrichment of 18.9. With NGSKAYAYVHF [PABPC5_Y147_G146A] the phosphorylation enrichment was 0.438. INQGPYENRSV [ATP6V1B1_Y462] was tested, and the phosphorylation enrichment was 0.423. GSRGKYSSGFC [ATM_Y332_R337C] gave a phosphorylation enrichment of 0.431. With KGEDFYSVTCH [FHL1_Y149_C150S] the phosphorylation enrichment was 3.19. ILQSMYGCDVG [HLA-B_Y123_T118I] gave a phosphorylation enrichment of 0.517.

What follows are sequences tested against MERTK (UniProt Q12866) in the same assay as above.
MERTK, sequence (Q12866 whole entry, looked up): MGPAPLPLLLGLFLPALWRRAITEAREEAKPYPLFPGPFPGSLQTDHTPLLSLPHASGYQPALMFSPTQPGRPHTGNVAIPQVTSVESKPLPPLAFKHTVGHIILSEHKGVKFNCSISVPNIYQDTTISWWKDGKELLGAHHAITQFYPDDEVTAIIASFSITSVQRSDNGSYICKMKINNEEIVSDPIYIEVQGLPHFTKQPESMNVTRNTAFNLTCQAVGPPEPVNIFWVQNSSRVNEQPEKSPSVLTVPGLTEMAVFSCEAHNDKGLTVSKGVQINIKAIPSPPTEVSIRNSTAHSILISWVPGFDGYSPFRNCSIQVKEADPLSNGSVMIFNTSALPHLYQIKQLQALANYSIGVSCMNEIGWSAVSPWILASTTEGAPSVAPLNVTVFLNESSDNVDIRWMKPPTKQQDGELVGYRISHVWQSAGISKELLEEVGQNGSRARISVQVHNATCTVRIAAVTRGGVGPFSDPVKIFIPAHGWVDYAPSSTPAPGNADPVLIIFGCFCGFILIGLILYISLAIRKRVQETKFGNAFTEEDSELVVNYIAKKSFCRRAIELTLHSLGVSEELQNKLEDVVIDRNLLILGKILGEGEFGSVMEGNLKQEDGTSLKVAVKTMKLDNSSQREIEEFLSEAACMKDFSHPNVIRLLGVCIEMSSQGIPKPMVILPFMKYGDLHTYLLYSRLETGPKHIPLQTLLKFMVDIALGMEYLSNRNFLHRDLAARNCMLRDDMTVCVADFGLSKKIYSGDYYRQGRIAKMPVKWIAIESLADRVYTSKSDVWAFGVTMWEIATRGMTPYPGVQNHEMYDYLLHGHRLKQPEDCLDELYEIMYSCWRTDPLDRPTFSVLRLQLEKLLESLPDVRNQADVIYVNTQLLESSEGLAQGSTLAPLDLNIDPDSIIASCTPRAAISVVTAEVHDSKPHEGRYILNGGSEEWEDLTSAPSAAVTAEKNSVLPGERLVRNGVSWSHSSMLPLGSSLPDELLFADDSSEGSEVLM
FRNSLYAPDYS [FAM92A_Y226] showed a phosphorylation enrichment of 4.83. With IEPGIYIPEDD [XPNPEP3_Y455] the phosphorylation enrichment was 0.558. In the case of QTPVLYAMLYH [MPZ_Y220_D224Y], the phosphorylation enrichment is reported as 8.33. In the case of RGDCMYASLLG [AR_Y269_P271S], the phosphorylation enrichment is reported as 4.87. EWLRRYLENGK [HLA-A_Y195] was tested, and the phosphorylation enrichment was 0.328. In the case of RYLKDYGEFEV [GINS1_Y156_C152Y], the phosphorylation enrichment is reported as 0.792. In the case of QKPLGYFRVNL [GALE_Y104_D103G_YF], the phosphorylation enrichment is reported as 0.577. TDEYEYDELIV [TGM1_Y136] gave a phosphorylation enrichment of 0.436. In the case of PVQAAYPKVVA [HBB_Y131_Q132P], the phosphorylation enrichment is reported as 0.504. For GRSTYYWPRPR [GAGE12J_Y10], the phosphorylation enrichment was 0.748. IMAFFYMCDSA [CASD1_Y382_R386S_YF] was tested, and the phosphorylation enrichment was 0.401. Sequence IPGGIYDADLN [CST4_Y35] has a phosphorylation enrichment of 0.787. In the case of MARDISRASFF [ALK_Y1278_Y1278S_YF], the phosphorylation enrichment is reported as 0.432. GTSLIYWTLFT [G6PC3_Y214] showed a phosphorylation enrichment of 5.81. In the case of TSFSGYRFHRH [NKAPL_Y94_YF], the phosphorylation enrichment is reported as 0.452. Work on MHYSNYVSKGS [PDGFRA_Y849_D846Y] yielded a phosphorylation enrichment of 0.526. NAPNSYGRRLI [CDKN2A_Y44_P48L] showed a phosphorylation enrichment of 0.442. NHFKIHNLCAE [PTEN_Y68_Y68H_YF] was tested, and the phosphorylation enrichment was 0.437. For FPPISYLNAIS [MVD_Y276], the phosphorylation enrichment was 0.49. In the case of YRDALYKFIVD [PHEX_Y250_M253I], the phosphorylation enrichment is reported as 1.65. Work on KIVFVYVKKRS [DNAI2_Y7_E2K_YF] yielded a phosphorylation enrichment of 0.354. DTLMEYLENPK [CYCS_Y68] was tested, and the phosphorylation enrichment was 0.529. LVTRSYLLGNS [LMNA_Y646] showed a phosphorylation enrichment of 0.794. MIRSAYALGGL [CPS1_Y590] was tested, and the phosphorylation enrichment was 0.449. With GLRFGYGGLGG [KRTAP20-2_Y15_V17G_YF] the phosphorylation enrichment was 0.456. For EKSREYDRLFE [PIK3R1_Y463_YF], the phosphorylation enrichment was 0.453. Sequence YSKTQYNQVPR [CXADR_Y318_S323R] has a phosphorylation enrichment of 0.514. For LPIQTYSALNF [DES_Y423], the phosphorylation enrichment was 15.9. Sequence NGSKAYAYVHF [PABPC5_Y147_G146A] has a phosphorylation enrichment of 0.656. INQGPYENRSV [ATP6V1B1_Y462] gave a phosphorylation enrichment of 0.38. GSRGKYSSGFC [ATM_Y332_R337C] was tested, and the phosphorylation enrichment was 0.51. In the case of KGEDFYSVTCH [FHL1_Y149_C150S], the phosphorylation enrichment is reported as 4.71. For ILQSMYGCDVG [HLA-B_Y123_T118I], the phosphorylation enrichment was 0.438.
